# Assay results published in patent US20200268901A1.
# Substitutions are numbered along the chain they refer to.
# B1: 11F11-Fab (Fab, V domains shown, part only)
# VH: QVQLVESGGGVVQPGRSLRLSCATSGFTFSNYGMHWVRQAPGKGLEWVAVILYDGSNKYYPDSVKGRFTISRDNSKNTLYLQMNSLRAEDTAVYYCARGGSSWYPDSFDIWGQGTMVTVSS
# VL: DIQMTQSPSSLSASVGDRVTITCRASQGISSWLAWYQQKPEKAPKSLIYAASSLQSGVPSRFSGSGSGTDFTLTISSLQPEDFATYYCQQYNSYPLTFGGGTKVEIKR
# modifications: CH1 of Fab heavy chain not stated
# B2: CD73.4-hybrid (antibody, from a related filing, V domains shown, part only)
# VH: B1 VH with T24A
# VL: B1 VL
# Experiments:
# [1] = target: N-hCD73-his (N-terminal domain of human CD73, residues 26-336) (human) (UniProt P21589); experiment: SEC-MALS, N-hCD73-his:Fab 1:1 (8:8 uM); peak at ~17.4 min, 95.3 % of UV
# [2] = target: hCD73-his (full length extracellular domain of human CD73, residues 26-546, C-terminal polyhistidine tag) (human) (UniProt P21589); experiment: SEC-MALS, hCD73-his:Fab 1:2 (4:8 uM); peak at ~20.1 min, 7.7 % of UV
# [3] = target: hCD73-his (full length extracellular domain of human CD73, residues 26-546, C-terminal polyhistidine tag) (human) (UniProt P21589); experiment: SEC-MALS, hCD73-his:Fab 1:2 (4:8 uM); peak at ~12.6 min, 0.9 % of UV
# [4] = target: hCD73-his (full length extracellular domain of human CD73, residues 26-546, C-terminal polyhistidine tag) (human) (UniProt P21589); experiment: SEC-MALS, hCD73-his:Fab 1:2 (4:8 uM); peak at ~14.7 min, 90.7 % of UV
# [5] = target: hCD73-his (full length extracellular domain of human CD73, residues 26-546, C-terminal polyhistidine tag) (human) (UniProt P21589); experiment: DLS, hCD73-his:Fab 1:2 (4:8 uM); Rh SD 0.1, %Pd 15.1 (SD 4.3), %Mass 100.0 (SD 0.0)
# [6] = target: N-hCD73-his (N-terminal domain of human CD73, residues 26-336) (human) (UniProt P21589); experiment: SEC-MALS, N-hCD73-his:Fab 1:1 (8:8 uM); peak at ~20.0 min, 4.7 % of UV
# [7] = target: N-hCD73-his (N-terminal domain of human CD73, residues 26-336) (human) (UniProt P21589); experiment: DLS, N-hCD73-his:Fab 1:1 (8:8 uM); Rh SD 0.1, %Pd 12.6 (SD 4.7), %Mass 100.0 (SD 0.0)
# [8] = target: hCD73-his (full length extracellular domain of human CD73, residues 26-546, C-terminal polyhistidine tag) (human) (UniProt P21589); experiment: SEC-MALS, hCD73-his:Fab 1:2 (4:8 uM); peak at ~16.8 min, 0.8 % of UV
# [9] = target: hCD73-his (full length extracellular domain of human CD73, residues 26-546, C-terminal polyhistidine tag) (human) (UniProt P21589); experiment: DLS, hCD73:mAb 1:0.5 (2.5:1.25 uM); Rh SD 1.0, %Pd 31.7 (SD 8.8), %Mass 62.6 (SD 25.8)
# [10] = target: hCD73-his (full length extracellular domain of human CD73, residues 26-546, C-terminal polyhistidine tag) (human) (UniProt P21589); experiment: SEC-MALS, hCD73:mAb 1:1 (2.5:[…]); peak at ~17.1 min, […] of UV
# [11] = target: hCD73-his (full length extracellular domain of human CD73, residues 26-546, C-terminal polyhistidine tag) (human) (UniProt P21589); experiment: SEC-MALS, hCD73:mAb 1:2 (2.5:5 uM); peak at ~11.7 min, 52.5 % of UV
# [12] = target: hCD73-his (full length extracellular domain of human CD73, residues 26-546, C-terminal polyhistidine tag) (human) (UniProt P21589); experiment: SEC-MALS, hCD73:mAb 1:0.25 (2.5:0.625 uM); peak at ~11.8 min, 42.0 % of UV
# [13] = target: N-hCD73-his (N-terminal domain of human CD73, residues 26-336) (human) (UniProt P21589); experiment: SEC-MALS, N-hCD73:mAb 1:1 as printed (5:[…]); peak at ~13.9 min, 0.7 % of UV
# [14] = target: hCD73-his (full length extracellular domain of human CD73, residues 26-546, C-terminal polyhistidine tag) (human) (UniProt P21589); experiment: SEC-MALS, hCD73:mAb 1:2 (2.5:5 uM); peak at ~17.1 min, 29.3 % of UV
# [15] = target: hCD73-his (full length extracellular domain of human CD73, residues 26-546, C-terminal polyhistidine tag) (human) (UniProt P21589); experiment: SEC-MALS, hCD73:mAb 1:0.5 (2.5:1.25 uM); peak at ~11.7 min, 71.9 % of UV
# [16] = target: hCD73-his (full length extracellular domain of human CD73, residues 26-546, C-terminal polyhistidine tag) (human) (UniProt P21589); experiment: SEC-MALS, hCD73:mAb 1:2 (2.5:5 uM); peak at ~15.3 min, 0.6 % of UV
# [17] = target: hCD73-his (full length extracellular domain of human CD73, residues 26-546, C-terminal polyhistidine tag) (human) (UniProt P21589); experiment: SEC-MALS, hCD73:mAb 1:4 (2.5:10 uM); peak at ~13.4 min, 16.2 % of UV
# [18] = target: N-hCD73-his (N-terminal domain of human CD73, residues 26-336) (human) (UniProt P21589); experiment: DLS, N-hCD73:mAb 1:1 as printed (5:[…]); Rh SD 0.3, %Pd 13.9 (SD 7.0), %Mass 100.0 (SD 0.0)
# [19] = target: N-hCD73-his (N-terminal domain of human CD73, residues 26-336) (human) (UniProt P21589); experiment: SEC-MALS, N-hCD73:mAb 1:1 as printed (5:[…]); peak at ~15.9 min, […] of UV
# [20] = target: N-hCD73-his (N-terminal domain of human CD73, residues 26-336) (human) (UniProt P21589); experiment: SEC-MALS, N-hCD73:mAb 1:1 as printed (5:[…]); peak at ~17.0 min, […] of UV
# [21] = target: hCD73-his (full length extracellular domain of human CD73, residues 26-546, C-terminal polyhistidine tag) (human) (UniProt P21589); experiment: SEC-MALS, hCD73:mAb 1:1 (2.5:[…]); peak at ~13.4 min, 1.9 % of UV
# [22] = target: hCD73-his (full length extracellular domain of human CD73, residues 26-546, C-terminal polyhistidine tag) (human) (UniProt P21589); experiment: DLS, hCD73:mAb 1:4 (2.5:10 uM); Rh SD 0.9, %Pd 42.9 (SD 3.5), %Mass 90.2 (SD 17.5)
# [23] = target: hCD73-his (full length extracellular domain of human CD73, residues 26-546, C-terminal polyhistidine tag) (human) (UniProt P21589); experiment: DLS, hCD73:mAb 1:2 (2.5:5 uM); Rh SD 0.1, %Pd 31.3 (SD 5.5), %Mass 68.7 (SD 25.8)
# [24] = target: hCD73-his (full length extracellular domain of human CD73, residues 26-546, C-terminal polyhistidine tag) (human) (UniProt P21589); experiment: DLS, hCD73:mAb 1:0.25 (2.5:0.625 uM); Rh SD 1.7, %Pd 46.5 (SD 5.9), %Mass 99.9 (SD 0.1)
# [25] = target: hCD73-his (full length extracellular domain of human CD73, residues 26-546, C-terminal polyhistidine tag) (human) (UniProt P21589); experiment: SEC-MALS, hCD73:mAb 1:0.25 (2.5:0.625 uM); peak at ~13.4 min, 21.6 % of UV
# [26] = target: hCD73-his (full length extracellular domain of human CD73, residues 26-546, C-terminal polyhistidine tag) (human) (UniProt P21589); experiment: SEC-MALS, hCD73:mAb 1:4 (2.5:10 uM); peak at ~17.1 min, 58.6 % of UV
# [27] = target: hCD73-his (full length extracellular domain of human CD73, residues 26-546, C-terminal polyhistidine tag) (human) (UniProt P21589); experiment: DLS, hCD73:mAb 1:1 (2.5:[…]); Rh SD 1.0, %Pd 25.1 (SD 2.1), %Mass 22.3 (SD 4.9)
# [28] = target: hCD73-his (full length extracellular domain of human CD73, residues 26-546, C-terminal polyhistidine tag) (human) (UniProt P21589); experiment: SEC-MALS, hCD73:mAb 1:0.5 (2.5:1.25 uM); peak at ~17.1 min, 13.4 % of UV
# [29] = target: hCD73-his (full length extracellular domain of human CD73, residues 26-546, C-terminal polyhistidine tag) (human) (UniProt P21589); experiment: SEC-MALS, hCD73:mAb 1:0.5 (2.5:1.25 uM); peak at ~13.4 min, 15.8 % of UV
# [30] = target: hCD73-his (full length extracellular domain of human CD73, residues 26-546, C-terminal polyhistidine tag) (human) (UniProt P21589); experiment: SEC-MALS, hCD73:mAb 1:4 (2.5:10 uM); peak at ~11.7 min, […] of UV
# [31] = target: hCD73-his (full length extracellular domain of human CD73, residues 26-546, C-terminal polyhistidine tag) (human) (UniProt P21589); experiment: SEC-MALS, hCD73:mAb 1:2 (2.5:5 uM); peak at ~13.4 min, 17.7 % of UV
# [32] = target: hCD73-his (full length extracellular domain of human CD73, residues 26-546, C-terminal polyhistidine tag) (human) (UniProt P21589); experiment: SEC-MALS, hCD73:mAb 1:0.25 (2.5:0.625 uM); peak at ~17.1 min, 36.4 % of UV
# [33] = target: hCD73-his (full length extracellular domain of human CD73, residues 26-546, C-terminal polyhistidine tag) (human) (UniProt P21589); experiment: SEC-MALS, hCD73:mAb 1:1 (2.5:[…]); peak at ~11.5 min, 95.3 % of UV
# [34] = target: N-hCD73-his (N-terminal domain of human CD73, residues 26-336) (human) (UniProt P21589); experiment: SEC-MALS, N-hCD73:mAb 1:1 as printed (5:[…]); peak at ~14.7 min, 88.3 % of UV
# [35] = target: hCD73-his (full length extracellular domain of human CD73, residues 26-546, C-terminal polyhistidine tag) (human) (UniProt P21589); experiment: SEC-MALS, hCD73:mAb 1:4 (2.5:10 uM); peak at ~15.3 min, 1.2 % of UV
# Chain of N-hCD73-his (N-terminal domain of human CD73, residues 26-336) (human) (P21589 26-336 limits assumed): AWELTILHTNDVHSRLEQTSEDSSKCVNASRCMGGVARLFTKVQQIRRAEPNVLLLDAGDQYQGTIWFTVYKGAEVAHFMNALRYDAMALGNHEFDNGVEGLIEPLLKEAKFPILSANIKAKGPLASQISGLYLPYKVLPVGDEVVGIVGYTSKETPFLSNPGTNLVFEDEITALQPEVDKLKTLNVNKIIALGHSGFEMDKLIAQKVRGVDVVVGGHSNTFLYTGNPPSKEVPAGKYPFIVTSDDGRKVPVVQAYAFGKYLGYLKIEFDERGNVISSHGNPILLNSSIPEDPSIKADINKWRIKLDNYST
# Chain of hCD73-his (full length extracellular domain of human CD73, residues 26-546, C-terminal polyhistidine tag) (human) (P21589 26-546 limits assumed): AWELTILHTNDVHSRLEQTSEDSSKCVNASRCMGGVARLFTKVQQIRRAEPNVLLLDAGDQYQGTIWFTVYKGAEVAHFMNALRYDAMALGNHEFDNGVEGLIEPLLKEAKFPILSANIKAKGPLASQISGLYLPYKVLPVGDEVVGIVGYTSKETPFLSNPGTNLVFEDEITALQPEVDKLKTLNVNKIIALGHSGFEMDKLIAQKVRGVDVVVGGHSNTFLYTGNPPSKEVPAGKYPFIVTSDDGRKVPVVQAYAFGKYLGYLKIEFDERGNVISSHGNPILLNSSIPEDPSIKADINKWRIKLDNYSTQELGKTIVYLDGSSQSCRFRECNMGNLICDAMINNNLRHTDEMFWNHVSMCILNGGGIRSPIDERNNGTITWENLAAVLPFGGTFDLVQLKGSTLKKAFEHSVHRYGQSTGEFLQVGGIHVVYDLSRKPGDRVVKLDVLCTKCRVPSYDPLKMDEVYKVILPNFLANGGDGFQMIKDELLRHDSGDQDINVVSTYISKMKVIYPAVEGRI
binder,measurement,setting,value
B1,MW (kDa) Peak 1,[1],84 kDa
same,MW (kDa) Peak 4,[2],40 kDa
same,MW (kDa) Peak 1,[3],300 kDa
same,MW (kDa) Peak 2,[4],310 kDa
same,Rh (DLS),[5],6.4 nm
same,MW (kDa) Peak 2,[6],44 kDa
same,Rh (DLS),[7],4.2 nm
same,MW (kDa) Peak 3,[8],85 kDa
B2,Rh (DLS),[9],17.5 nm
same,MW (kDa) Peak 3,[10],530 kDa
same,MW (kDa) Peak 1,[11],1700 kDa
same,MW (kDa) Peak 1,[12],1200 kDa
same,MW (kDa) Peak 1,[13],390 kDa
same,MW (kDa) Peak 4,[14],140 kDa
same,MW (kDa) Peak 1,[15],1900 kDa
same,MW (kDa) Peak 3,[16],220 kDa
same,MW (kDa) Peak 2,[17],500 kDa
same,Rh (DLS),[18],6.7 nm
same,MW (kDa) Peak 3,[19],180 kDa
same,MW (kDa) Peak 4,[20],150 kDa
same,MW (kDa) Peak 2,[21],1000 kDa
same,Rh (DLS),[22],11.4 nm
same,Rh (DLS),[23],14.4 nm
same,Rh (DLS),[24],13.2 nm
same,MW (kDa) Peak 2,[25],520 kDa
same,MW (kDa) Peak 4,[26],140 kDa
same,Rh (DLS),[27],29.9 nm
same,MW (kDa) Peak 3,[28],130 kDa
same,MW (kDa) Peak 2,[29],540 kDa
same,MW (kDa) Peak 1,[30],1300 kDa
same,MW (kDa) Peak 2,[31],500 kDa
same,MW (kDa) Peak 3,[32],120 kDa
same,MW (kDa) Peak 1,[33],3300 kDa
same,MW (kDa) Peak 2,[34],210 kDa
same,MW (kDa) Peak 3,[35],200 kDa
